Results on 1 substance are retold here after article PMC12516185.

This test has as its target Zea mays pullulanase1 (ZPU1), from residue 80, GAL4 fusion (maize (Zea mays L.)) (UniProt O81638).

On to “maize isoamylase1 (ISA1), mature protein from residue 50, GAL4 fusion (from UniProt O22637 50-789) (enzyme)”, for which the Red Pullulan hydrolysis (ZPU1 activity) in total soluble extracts of yeast strain 830 (ISA1 and ZPU1) compared with strain 808 (ZPU1 alone) was 1.7 fold.
